Measured values: the supplement of paper PMC7877785
± gives the uncertainty stated by the source.

Assay: self-splicing fitness, log relative to wild type (ln ratio); higher = more splicing; Tetrahymena group I intron in knt gene, E. coli kanamycin selection, DiMSum; sequences stand for … in CUCUCU…GGAGGGAAAAGUUAUCAGGCAUGCACCUGGUAGCUAGUCUUUAAACCAAUAGAUUGCAUCGGUUUAAAAGGCAAGACCGUCAAAUUGCGGGAAAGGGGUCAACAGCCGUUCAGUACCAAGUCUCAGGGGAAACUUUGAGAUGGCCUUGCAAAGGGUAUGGUAAUAAGCUGACGGACAUGGUCCUAACCACGCAGCCAAGUCCUAAGUCAACAGAUCUUCUGUUGAUAUGGAUGCAGUUCACAGACUAAAUGUCGGUCGGGGAAGAUGUAUUCUUCUCAUAAGAUAUAGUCGGACCUCUCCUUAAUGGGAGCUAGCGGAUGAAGUGAUGCAACACUGGAGCCGCUGGGAACUAAUUUGUAUGCGAAAGUAUAUUGAUUAGUUUUGGAGUACUCGUGGUCG
Method in brief: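 Library with all eight P1ex-region intron nucleotides randomised, intron inside the knt kanamycin-resistance gene on pET-22b(+), in E. coli BL21(DE3). Cells grew overnight at 37°C or 30°C on LB agar with or without 25 μg/mL kanamycin (plus 100 μg/mL carbenicillin, 50 μM IPTG, 0.2% rhamnose), in six replicate transformations. Pooled colonies were amplicon-sequenced on Illumina HiSeq 2500. DiMSum fitness is the error-weighted combination of wild-type-normalised replicate fold changes, kanamycin versus none.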

| Sequence | self-splicing fitness (ln) (30 °C) | self-splicing fitness (ln) (37 °C) |
| --- | --- | --- |
| AAUUAGCAAUAUUACGCCUU | -0.243 ± 0.11 | -0.0919 ± 0.12 |
| UCGGAGCAAUAUUACGUGGG | -3.49 ± 0.32 | -3.22 ± 0.28 |
| GCUCAGCAAUAUUACGCGGG | -3.41 ± 0.2 | -2.78 ± 0.2 |
| AAGAAGCAAUAUUACGGGCA | -0.698 ± 0.092 | -0.225 ± 0.11 |
| GUGAAGCAAUAUUACGACGC | 0.482 ± 0.12 | 0.847 ± 0.17 |
| CUGUAGCAAUAUUACGGAAC | – | -2.87 ± 0.34 |
| CAUUAGCAAUAUUACGGUGA | -2.79 ± 0.19 | -1.92 ± 0.13 |
| GGACAGCAAUAUUACGCACG | -0.391 ± 0.084 | 0.295 ± 0.1 |
| GUCAAGCAAUAUUACGCGUC | -2.99 ± 0.15 | -2.22 ± 0.19 |
| AAUAAGCAAUAUUACGGACU | -0.768 ± 0.071 | 0.349 ± 0.1 |
| AAUUAGCAAUAUUACGCCUG | -0.979 ± 0.14 | -0.733 ± 0.21 |
| AUAAAGCAAUAUUACGACUU | 0.0576 ± 0.088 | 0.686 ± 0.13 |
| CCCUAGCAAUAUUACGCGAC | -4.32 ± 0.36 | -2.67 ± 0.33 |
| CGGGAGCAAUAUUACGAGUA | -2.74 ± 0.42 | – |
| UGGGAGCAAUAUUACGGAAU | – | -1.69 ± 0.48 |
| AAGCAGCAAUAUUACGCAUU | -2.49 ± 0.12 | -1.23 ± 0.12 |
| AAAAAGCAAUAUUACGAAGA | -1.96 ± 0.14 | -1.56 ± 0.15 |
| UCGAAGCAAUAUUACGCAAG | -2.17 ± 0.12 | -1.6 ± 0.13 |
| CAUGAGCAAUAUUACGGCAU | -3.35 ± 0.34 | -2.9 ± 0.47 |
| AAAUAGCAAUAUUACGCAUA | -1.7 ± 0.11 | -0.726 ± 0.11 |
| UUCCAGCAAUAUUACGGGCC | -3.91 ± 0.3 | -2.34 ± 0.33 |
| AAUCAGCAAUAUUACGUCCA | -0.876 ± 0.1 | -0.0432 ± 0.12 |

| Sequence | self-splicing fitness (ln) (30 °C) | self-splicing fitness (ln) (37 °C) |
| --- | --- | --- |
| GAAAAGCAAUAUUACGUGGG | -3.69 ± 0.13 | -1.29 ± 0.11 |
| GACGAGCAAUAUUACGGUCC | -3.83 ± 0.25 | -1.74 ± 0.23 |
| AAUCAGCAAUAUUACGCUAG | -0.729 ± 0.066 | 0.121 ± 0.09 |
| AGUCAGCAAUAUUACGCUUC | -2.35 ± 0.2 | -1.79 ± 0.21 |
| AUUUAGCAAUAUUACGUGUU | -1.73 ± 0.14 | 0.39 ± 0.14 |
| UGUCAGCAAUAUUACGUGGC | -4.53 ± 0.31 | -3.13 ± 0.31 |
| AGCGAGCAAUAUUACGUGCG | -2.67 ± 0.094 | -0.964 ± 0.098 |
| UCAUAGCAAUAUUACGUUGG | -4.13 ± 0.46 | -1.05 ± 0.24 |
| CUCGAGCAAUAUUACGAGUG | -1.7 ± 0.1 | -1.47 ± 0.12 |
| UCGUAGCAAUAUUACGCCCU | -1 ± 0.25 | -0.827 ± 0.34 |
| ACGAAGCAAUAUUACGGCGA | -0.157 ± 0.087 | 0.0766 ± 0.12 |
| CAGUAGCAAUAUUACGUCAC | -2 ± 0.25 | – |
| UAUAAGCAAUAUUACGCGAA | -1.09 ± 0.15 | -0.98 ± 0.16 |
| CCUAAGCAAUAUUACGGGUC | -4.66 ± 0.36 | -3.25 ± 0.22 |
| UGCCAGCAAUAUUACGAGGU | -3.06 ± 0.13 | -3.99 ± 0.3 |
| GCGUAGCAAUAUUACGUUAA | -2.13 ± 0.23 | -1.74 ± 0.2 |
| UUAGAGCAAUAUUACGCGCU | -1.84 ± 0.41 | -1.11 ± 0.47 |
| CGGGAGCAAUAUUACGCGAG | – | -2.93 ± 0.32 |
| UUAUAGCAAUAUUACGCCAU | -3.93 ± 0.31 | -3.15 ± 0.28 |
| UACGAGCAAUAUUACGUGGA | -3.55 ± 0.23 | -1.98 ± 0.19 |
| UUGCAGCAAUAUUACGGCAA | -3.02 ± 0.23 | -2.27 ± 0.24 |
| AAUAAGCAAUAUUACGUAGC | – | -2.38 ± 0.27 |
